Columns and labels:
[1] = target: Tax deletion mutant TD1 (Δ1–37) (HTLV-1, UniProt P03409 38-353); experiment: cell-based or functional assay
[2] = target: Tax deletion mutant TD55 (Δ55–92) (HTLV-1, UniProt P03409 1-353, Δ55–92); experiment: cell-based or functional assay

B1: Drosha (endogenous, 293T cell lysate) (enzyme, human (endogenous in 293T), UniProt Q9NRR4 1-1374, looked up)
chain: MMQGNTCHRMSFHPGRGCPRGRGGHGARPSAPSFRPQNLRLLHPQQPPVQYQYEPPSAPSTTFSNSPAPNFLPPRPDFVPFPPPMPPSAQGPLPPCPIRPPFPNHQMRHPFPVPPCFPPMPPPMPCPNNPPVPGAPPGQGTFPFMMPPPSMPHPPPPPVMPQQVNYQYPPGYSHHNFPPPSFNSFQNNPSSFLPSANNSSSPHFRHLPPYPLPKAPSERRSPERLKHYDDHRHRDHSHGRGERHRSLDRRERGRSPDRRRQDSRYRSDYDRGRTPSRHRSYERSRERERERHRHRDNRRSPSLERSYKKEYKRSGRSYGLSVVPEPAGCTPELPGEIIKNTDSWAPPLEIVNHRSPSREKKRARWEEEKDRWSDNQSSGKDKNYTSIKEKEPEETMPDKNEEEEEELLKPVWIRCTHSENYYSSDPMDQVGDSTVVGTSRLRDLYDKFEEELGSRQEKAKAARPPWEPPKTKLDEDLESSSESECESDEDSTCSSSSDSEVFDVIAEIKRKKAHPDRLHDELWYNDPGQMNDGPLCKCSAKARRTGIRHSIYPGEEAIKPCRPMTNNAGRLFHYRITVSPPTNFLTDRPTVIEYDDHEYIFEGFSMFAHAPLTNIPLCKVIRFNIDYTIHFIEEMMPENFCVKGLELFSLFLFRDILELYDWNLKGPLFEDSPPCCPRFHFMPRFVRFLPDGGKEVLSMHQILLYLLRCSKALVPEEEIANMLQWEELEWQKYAEECKGMIVTNPGTKPSSVRIDQLDREQFNPDVITFPIIVHFGIRPAQLSYAGDPQYQKLWKSYVKLRHLLANSPKVKQTDKQKLAQREEALQKIRQKNTMRREVTVELSSQGFWKTGIRSDVCQHAMMLPVLTHHIRYHQCLMHLDKLIGYTFQDRCLLQLAMTHPSHHLNFGMNPDHARNSLSNCGIRQPKYGDRKVHHMHMRKKGINTLINIMSRLGQDDPTPSRINHNERLEFLGDAVVEFLTSVHLYYLFPSLEEGGLATYRTAIVQNQHLAMLAKKLELDRFMLYAHGPDLCRESDLRHAMANCFEALIGAVYLEGSLEEAKQLFGRLLFNDPDLREVWLNYPLHPLQLQEPNTDRQLIETSPVLQKLTEFEEAIGVIFTHVRLLARAFTLRTVGFNHLTLGHNQRMEFLGDSIMQLVATEYLFIHFPDHHEGHLTLLRSSLVNNRTQAKVAEELGMQEYAITNDKTKRPVALRTKTLADLLESFIAALYIDKDLEYVHTFMNVCFFPRLKEFILNQDWNDPKSQLQQCCLTLRTEGKEPDIPLYKTLQTVGPSHARTYTVAVYFKGERIGCGKGPSIQQAEMGAAMDALEKYNFPQMAHQKRFIERKYRQELKEMRWEREHQEREPDETEDIKK
In the case of B1, the “miR326 expression (quantiMiR PCR, normalized to U6, relative to mock) in 293T cells transfected with the Tax mutant” value [1] is reported as 1.5 fold and the “miR326 expression (quantiMiR PCR, normalized to U6, relative to mock) in 293T cells transfected with the Tax mutant” value [2] is reported as 4 fold.

— PMC3393700, “Localization and Sub-Cellular Shuttling of HTLV-1 Tax with the miRNA Machinery” (PLoS ONE, 2012)
